No end group written: not given here.
How the values were obtained:
Assay in all cases: cell-based or functional assay
[1] = target: T1, FPRL-1 (formyl peptide receptor like-1) receptor (human, UniProt P25090 1-351)
T1 sequence: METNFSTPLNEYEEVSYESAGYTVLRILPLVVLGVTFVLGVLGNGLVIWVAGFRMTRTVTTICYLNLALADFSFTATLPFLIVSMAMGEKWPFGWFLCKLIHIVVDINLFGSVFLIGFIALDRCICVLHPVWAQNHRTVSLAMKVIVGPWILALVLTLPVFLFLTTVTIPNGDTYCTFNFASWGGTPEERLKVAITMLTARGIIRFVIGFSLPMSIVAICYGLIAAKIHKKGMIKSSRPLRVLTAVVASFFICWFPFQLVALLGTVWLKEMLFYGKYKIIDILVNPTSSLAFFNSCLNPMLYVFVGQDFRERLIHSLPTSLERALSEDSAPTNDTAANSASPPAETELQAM

[2] = target: T1, FPRL-1 (formyl peptide receptor like-1) …; remark: listed apart in the source
[3] = target: T1, FPRL-1 (formyl peptide receptor like-1) …; remark: listed apart in the source
[4] = target: T1, FPRL-1 (formyl peptide receptor like-1) …; remark: listed apart in the source

- Expression of TNFα in MonoMac 6 cells, fold induction at 3 h, W-peptide (1 µM) [1]: 1.03 fold induction
- Expression of IL-8 in MonoMac 6 cells, fold induction at 3 h, W-peptide (1 µM) [2]: 1.54 fold induction
- Migration Index of MonoMac6 cells, W-peptide (10 nM) [3]: 0.95 migration index (fold over control medium)
- Migration Index of MonoMac6 cells, W-peptide (100 nM) [3]: 1.23 migration index (fold over control medium)
- Migration Index of MonoMac6 cells, W-peptide (1 µM) [3]: 2.46 migration index (fold over control medium)
- Expression of MMP-12 in MonoMac 6 cells, fold induction at 3 h, W-peptide (1 µM) [4]: 1.51 fold induction
Binder: WKYMVM (not fully specified (residue 6)) [W-peptide]

Source: patent US20020119494A1 (Boehringer Ingelheim, published 2002)
